For one assay, the target named is T1, human CCR3 (human, UniProt P51677 1-355).
T1 construct: whole, on cells; also called hCCR3; CHO-S-hCCR3 (expressing cells)
T1 sequence (looked up): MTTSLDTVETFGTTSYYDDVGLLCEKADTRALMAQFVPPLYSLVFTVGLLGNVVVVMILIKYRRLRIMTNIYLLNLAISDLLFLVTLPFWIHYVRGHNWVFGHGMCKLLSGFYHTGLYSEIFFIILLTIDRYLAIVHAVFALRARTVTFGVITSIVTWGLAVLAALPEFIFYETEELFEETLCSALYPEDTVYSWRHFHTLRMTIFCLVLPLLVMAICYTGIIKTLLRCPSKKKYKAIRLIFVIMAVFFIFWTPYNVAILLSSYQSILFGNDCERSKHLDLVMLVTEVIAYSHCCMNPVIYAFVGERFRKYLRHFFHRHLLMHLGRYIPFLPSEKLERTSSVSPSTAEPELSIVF
The assay is described as follows: flow cytometry on CHO-S-hCCR3 cells, hybridoma culture supernatant diluted 10-fold. An excerpt: As test antibodies, each hybridoma culture supernatant diluted 10-fold, an existing mouse anti-human CCR1 monoclonal antibody 53504 antibody (R & D Technologies), and a mouse anti-human CCR3 monoclonal antibody 444-11 antibody (MBL) were used.
Regarding the measurement results, the fluorescence intensity when a certain cell was stained with a certain test antibody (each hybridoma culture supernatant, 53504 antibody or 444-11 antibody) and a secondary antibody was divided by the fluorescence intensity when the cell was stained only with the secondary antibody. […] In Table 2, the results are indicated as A and B, respectively.
On the technique in general: Flow cytometry measures light scatter and fluorescence of single cells or particles in a stream.

The target of assay [1] is T2, human CC chemokine receptor 1 (human CCR1) (human, UniProt P32246 1-355).
T2 sequence: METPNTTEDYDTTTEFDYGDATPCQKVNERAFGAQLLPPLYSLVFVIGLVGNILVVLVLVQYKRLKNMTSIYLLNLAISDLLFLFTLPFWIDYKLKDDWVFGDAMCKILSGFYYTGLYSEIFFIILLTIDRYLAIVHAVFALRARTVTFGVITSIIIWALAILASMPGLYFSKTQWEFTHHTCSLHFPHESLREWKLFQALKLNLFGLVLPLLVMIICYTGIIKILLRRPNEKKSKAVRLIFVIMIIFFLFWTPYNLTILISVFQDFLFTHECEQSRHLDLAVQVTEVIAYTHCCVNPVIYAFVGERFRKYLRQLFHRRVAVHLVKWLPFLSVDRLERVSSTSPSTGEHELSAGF
Kind of assay: cell-based or functional assay.

For assay [2], the target named is T2, human CC chemokine receptor 1 (human …). The assay is described as follows: flow cytometry on CHO-S-hCCR1 cells; bound = fluorescence 10 times or more that of isotype control chDNP1. As for the experimental part: (§1) The antigen affinity of the chKM5908′ antibody, which is a VL-substituted chimeric antibody, was measured by flow cytometry using the CHO-S-hCCR1 cells produced in Example 2. The cells were collected by centrifugation, the supernatant was removed, and the cells were suspended in PBS (Staining Medium, hereinafter, abbreviated as SM) containing 2% fetal bovine serum (FBS), 0.05% NaN₃, and 1 mM EDTA. Next, the cells were seeded in a 96-well plate so that the number of cells is 1×10⁵ per well, and the chKM5908′ antibody was added at each final concentration of 10,000, 2,000, 400, 80, 16, and 3.2 ng/mL, and the reaction was performed at 4° C. for 60 minutes. After washing the cells with SM, Goat F (ab′)₂ Anti-Human IgG PE (γ chain specific) (Southern Biotech) diluted 500-fold with SM was added and reacted at 4° C. for 60 minutes. After washing the cells with SM, the cells were resuspended in 50 μL of SM, and the fluorescence intensity was measured by the flow cytometry (FACS Canto II, BD Biosciences).
1996 June; 33 (9):759-68, hereinafter, referred to as chDNP1)] were determined to be bound to the human CCR1.

Assay [3] has the same target. Kind of assay: flow cytometry on CHO-S-hCCR1 cells, antibody 3.2 to 10,000 ng/mL, Geomean compared. As for the experimental part: as §1
The data was analyzed by FlowJo 7.65 (Tommy Digital Biology Co., Ltd.), and the binding strength was compared from the Geomean value at each concentration.

Numbering of substitutions follows the chain as printed.

B1: KM5907 antibody (antibody, mouse IgG1, V domains shown)
VH: EVQVVESGGNLVKPGGSLKLSCSASGFTFSRYGMSWVRQTPDKRLEWVASISATFTYTYYTDNVKGRFTISRDNAKNTLYLQMSSLRSEDTGMYYCTRQDNYAWFDSWGQGTLVTVSA
VL: DVLMTQTPLSLPVSLGDQVSISCRSSQSIVHSNGNTFLEWYLKKPGQSPKLLIYKVSSRFSGVPDRFSGSGSGTDFTLKIRRVEADDLGVYYCFQGSHIPWTFGGGTNLEIK
notes: mouse IgG1 from hybridoma
On to B1, for which the “fluorescence intensity ratio (test antibody + secondary / secondary only)” value with human CCR3 is less than 10 fold.

B2: KM5909 antibody (antibody, mouse IgG1, V domains shown)
VH: EVQLVESGGDLVKPGGSLKLSCAASGFTLSNYGMSWVRQTPDKRLEWVASISIGNYIYYLDSVKGRFTIYRDNAKNTLFLQMRSLKSEDTAMYHCARQGNDYDWFTYWGQGTLVTVSA
VL: B1 VL with V19A, I29V, S32T, F37Y, K43Q, S58N, R81N, D86E, I99L, N108K
notes: mouse IgG1 from hybridoma
In the case of B2, the “fluorescence intensity ratio (test antibody + secondary / secondary only)” value with human CCR3 is less than 10 fold.

B3: KM5915 antibody (antibody, mouse IgG2b, V domains shown)
VH: B2 VH with L29F, N55S, T106A
VL: B1 VL with V19A, S28N, S32T, F37Y, K43Q, S58N, R81S, D86E, I99L, N108K
notes: mouse IgG2b from hybridoma
Turning to B3, the “fluorescence intensity ratio (test antibody + secondary / secondary only)” value with human CCR3 was less than 10 fold.

B4: hzKM5916 LV2HV0 antibody (antibody, V domains shown)
VH: QVQLQESGGGLVKPGGSLKLSCAASGFTFSRNAMSWVRQTPDKRLEWVAYISSGSDYIYYADTVKGRFTISRDNAKNTLYLQMSSLKSEDTAMYYCARFSYGYGKNAPDYWGQGTMVTVSS
VL: DIQMTQSPSSLSASVGDRVTITCKASQDINKYIAWYQHKPGKGPKLLIHYTSSLQPGVPSRFSGSGSGTDFSFTISSLQPEDLATYYCLQYDYTMTFGGGTKVEIK
In the case of B4, the “antibody concentration showing THP-1 migration inhibitory activity” value in assay [1] is not below 0.3 µg/mL.

B5: hzmAb5-06 LV5HV14 antibody (antibody, V domains shown)
VH: QVQLQQSGPGLVKPSQTLSITCTVSGFSLNNYGVHWVRQPPGKGLEWLGVIWSAGTTVYNAAAISRLTISKDTSKNQVSFKMSSLTAADTAVYYCAKDGSRYYTAMDYWGQGTLVTVSS
VL: DVVMTQSPLSLPVTLGEPASISCRSSQSLVHRNGITFFHWYLQKPGQSPKLLIYKISNRFSGVPDRFSGSGSGTDFTLKISRVEAEDVGVYFCSQGTHVPPTFGQGTKLEIK
Take B5: the “antibody concentration showing THP-1 migration inhibitory activity” value in assay [1] is not below 0.3 µg/mL.

B6: KM5911 antibody (antibody, mouse IgG2b, V domains shown)
VH: DVKLVESGEGLVKPGGSLKLSCAASGFTFSRNAMSWVRQTPEKRMEWVAYISSGGDYIYYADTVKGRFTVSRDNARNTLYLRMSSLKSEDTAMYYCTRFSYGYAKNALDYWGQGTSVTVSS
VL: DIQMTQSPSSLSASLGGKVTITCKASQDIKKYIAWYQHKPGKGPRLLIHYTSSLQPGIPSRFSGSGSGRDYSFSISNLEPEDIATYYCLQYDYLMTFGGGTKLEIK
notes: mouse IgG2b from hybridoma
Regarding B6, in the assay with human CCR3, the “fluorescence intensity ratio (test antibody + secondary / secondary only)” value is less than 10 fold.

B7: KM5916 antibody (antibody, mouse IgG2b, V domains shown)
VH: B6 VH with M45L, G55S, R82Q, S84T, K87R, Y95F, A104G, L108P
VL: B6 VL with K30N, K42Q, L94T, K106R
notes: mouse IgG2b from hybridoma
B7: in the assay with human CCR3, the “fluorescence intensity ratio (test antibody + secondary / secondary only)” value is less than 10 fold.

B8: KM5908 antibody (antibody, mouse IgG2a, V domains shown)
VH: QVQLKQSGPGLVQPSQSLSITCTVSGFSLNNYGVHWVRQPPGKGLEWLGVIWSAGTTVYNAAFISRLSISKDDSKSQVFFKMNSLQAGDTAIYYCAKDGSRYYTAMDYWGQGTSVTVSS
VL: DVVMTQTPRSLPVSLGDQASISCRSRQSLIHSNGITFLHWYLQKAGQSPKLLIYKVSNRFSGVPDRFSGSGSGTDFTLRISRVEAEDLGVYFCSQGTHVPPTFGGGTKLEIK
notes: mouse IgG2a from hybridoma
B8: the “fluorescence intensity ratio (test antibody + secondary / secondary only)” value with human CCR3 is less than 10 fold.

B9: chKM5908′ mut30 (antibody, V domains shown)
VH: B8 VH with F63A
VL: DVVMTQTPLSLPVSLGDQASIFCRSSQSLVHRNGITFAHWYLQKPGQSPKLLIYKISNRFSGVPDRFSGSGSGTDFTLKISRVAPDDLGVYFCSQGTHVPPTFGGGTKLEIK
Take B9: the binding result in assay [2] is recorded as “binds”.

B10: chKM5908′ mut26 (antibody, V domains shown)
VH: B8 VH with F63A
VL: B9 VL with A38F, I56V, R59K
Turning to B10, the binding result in assay [2] is given as “binds”.

B11: chKM5908′ mut32 (antibody, V domains shown)
VH: B8 VH with I51T, I64A, Y102A, T104A
VL: B9 VL
Consider B11, for which the binding result in assay [2] is “binds”.

B12: chKM5908′ antibody (antibody, V domains shown)
VH: B8 VH
VL: B9 VL with A38F, I56V
notes: chimeric; also called VL-substituted chimeric antibody (VH of chKM5908, VL of chKM5914)
In the case of B12, in assay [3], the binding result is recorded as “binds”.

B13: chKM5908′ mut29 (antibody, V domains shown)
VH: B8 VH with I51T
VL: B9 VL
For B13, in assay [2], the binding result was “binds”.

B14: chKM5908′ mut28 (antibody, V domains shown)
VH: B8 VH with I51T, I64A, Y102A, T104A
VL: B9 VL with A38F, I56V, R59K
With B14, the binding result in assay [2] is listed as “binds”.

B15: chKM5908′ mut27 (antibody, V domains shown)
VH: B8 VH with I51T, V58A, I64A
VL: B9 VL with A38F, I56V, R59K
Regarding B15, the binding result in assay [2] is on record as “binds”.

B16: chKM5908′ mut31 (antibody, V domains shown)
VH: B8 VH with I51T, V58A, I64A
VL: B9 VL
For the molecule B16, the binding result in assay [2] is on record as “binds”.

B17: KM5954 antibody (antibody, mouse IgG2a, V domains shown)
VH: QVQLKESGPGLVAPSQSLSITCTVSGFSLPRYTITWVRQPPGKGLEWLGLIRTGGGTIYNSALKSRLSISKDNSKSQVFLKMNSLQSGDTARYYCARNGAYYSKSGSYWYFDVWGTGTTVTVSS
VL: QIVLTQSPAIMSVSLGEEITLTCSASSSVSYMHWYQQKSGTSPKLLIYSTSNLASGVPSRFSGSGSGTFYSLTISSVEAEDAADYYCHQWSSHPCTFGGGTKLEIK
notes: mouse IgG2a from hybridoma
Consider B17, for which, in the assay with human CCR3, the “fluorescence intensity ratio (test antibody + secondary / secondary only)” value is less than 10 fold.

B18: KM5956 antibody (antibody, mouse IgG2a, V domains shown)
VH: B17 VH with P30A, K104N
VL: B17 VL with V13A, S30T, T101A
notes: mouse IgG2a from hybridoma
Take B18: the “fluorescence intensity ratio (test antibody + secondary / secondary only)” value with human CCR3 was less than 10 fold.

B19: hzKM5907 LV2bHV3a antibody (antibody, V domains shown)
VH: EVQLLESGGGLVQPGGSLRLSCAASGFTFSRYGMSWVRQAPGKRLEWVSSISATFTYTYYTDNVKGRFTISRDNSKNTLYLQMNSLRAEDTGVYYCARQDNYAWFDSWGQGTLVTVSS
VL: DIVMTQTPLSLPVTSGEPVSISCRSSQSIVHSNGNTFLEWYLKKPGQSPQLLIYKVSSRFSGVPDRFSGSGSGTDFTLKISRVEAEDVGVYYCFQGSHIPWTFGGGTKVEIK
As for B19, the “antibody concentration showing THP-1 migration inhibitory activity” value in assay [1] is not below 0.3 µg/mL.

For the origin of these results see US20240026017A1 (Kyowa Kirin, published 2024).
